B1: Lysosomal cobalamin transport escort protein LMBD1 (Homo sapiens), Q9NUN5 (parent)
chain: MATSGAASAELVIGWCIFGLLLLAILAFCWIYVRKYQSRRESEVVSTITAIFSLAIALITSALLPVDIFLVSYMKNQNGTFKDWANANVSRQIEDTVLYGYYTLYSVILFCVFFWIPFVYFYYEEKDDDDTSKCTQIKTALKYTLGFVVICALLLLVGAFVPLNVPNNKNSTEWEKVKSLFEELGSSHGLAALSFSISSLTLIGMLAAITYTAYGMSALPLNLIKGTRSAAYERLENTEDIEEVEQHIQTIKSKSKDGRPLPARDKRALKQFEERLRTLKKRERHLEFIENSWWTKFCGALRPLKIVWGIFFILVALLFVISLFLSNLDKALHSAGIDSGFIIFGANLSNPLNMLLPLLQTVFPLDYILITIIIMYFIFTSMAGIRNIGIWFFWIRLYKIRRGRTRPQALLFLCMILLLIVLHTSYMIYSLAPQYVMYGSQNYLIETNITSDNHKGNSTLSVPKRCDADAPEDQCTVTRTYLFLHKFWFFSAAYYFGNWAFLGVFLIGLIVSCCKGKKSVIEGVDEDSDISDDEPSVYSA
partner: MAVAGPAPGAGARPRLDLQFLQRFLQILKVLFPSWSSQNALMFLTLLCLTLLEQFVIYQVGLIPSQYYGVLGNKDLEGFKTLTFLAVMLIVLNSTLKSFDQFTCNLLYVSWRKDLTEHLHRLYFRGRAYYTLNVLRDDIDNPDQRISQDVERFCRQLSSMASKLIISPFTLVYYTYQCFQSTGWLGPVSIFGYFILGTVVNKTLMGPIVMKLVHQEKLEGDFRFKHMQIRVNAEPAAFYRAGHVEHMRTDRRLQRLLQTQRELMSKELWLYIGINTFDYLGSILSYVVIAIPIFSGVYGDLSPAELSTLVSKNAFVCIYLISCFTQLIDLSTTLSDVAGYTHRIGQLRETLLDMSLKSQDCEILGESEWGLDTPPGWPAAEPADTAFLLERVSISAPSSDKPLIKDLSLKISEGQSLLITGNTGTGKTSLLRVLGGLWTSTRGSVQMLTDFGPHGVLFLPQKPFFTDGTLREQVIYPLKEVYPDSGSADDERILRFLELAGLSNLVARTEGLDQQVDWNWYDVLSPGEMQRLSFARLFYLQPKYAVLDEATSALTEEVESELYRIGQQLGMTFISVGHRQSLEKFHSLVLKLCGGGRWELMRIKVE

Variants of B1 are the subject of this assay. Particulars: with abcd4_human ABCD4, O14678.
Take MATSGAASAELVIGWCIFGLLLLAILAFCWIYVRKYQSRRESEVVSTITAIFSLAIALITSALLPVDIFLVSYMKNQNGTFKDWANANVSRQIEDTVLYGYYTLYSVILFCVFFWIPFVYFYYEEKDDDDTSKCTQIKTALKYTLGFVVICALLLLVGAFVPLNVPNNKNSTEWEKVKSLFEELGSSHGLAALSFSISSLTLIGMLAAITYTAYGMSALPLNLIKGTRSAAYERLENTEDIEEVEQHIQTIKSKSKDGRPLPARDKRALKQFEERLRTLKKRERHLEFIENSWAAAACGALRPLKIVWGIFFILVALLFVISLFLSNLDKALHSAGIDSGFIIFGANLSNPLNMLLPLLQTVFPLDYILITIIIMYFIFTSMAGIRNIGIWFFWIRLYKIRRGRTRPQALLFLCMILLLIVLHTSYMIYSLAPQYVMYGSQNYLIETNITSDNHKGNSTLSVPKRCDADAPEDQCTVTRTYLFLHKFWFFSAAYYFGNWAFLGVFLIGLIVSCCKGKKSVIEGVDEDSDISDDEPSVYSA [W294A;T295A;K296A;F297A]: the “effect of a mutation on the interaction” value is reported as “with no effect”.
MATSGAASAELVIGWCIFGLLLLAILAFCWIYVRKYQSRRESEVVSTITAIFSLAIALITSALLPVDIFLVSYMKNQNGTFKDWANANVSRQIEDTVLYGYYTLYSVILFCVFFWIPFVYFYYEEKDDDDTSKCTQIKTALKYTLGFVVICALLLLVGAFVPLNVPNNKNSTEWEKVKSLFEELGSSHGLAALSFSISSLTLIGMLAAITYTAYGMSALPLNLIKGTRSAAAAAAENTEDIEEVEQHIQTIKSKSKDGRPLPARDKRALKQFEERLRTLKKRERHLEFIENSWWTKFCGALRPLKIVWGIFFILVALLFVISLFLSNLDKALHSAGIDSGFIIFGANLSNPLNMLLPLLQTVFPLDYILITIIIMYFIFTSMAGIRNIGIWFFWIRLYKIRRGRTRPQALLFLCMILLLIVLHTSYMIYSLAPQYVMYGSQNYLIETNITSDNHKGNSTLSVPKRCDADAPEDQCTVTRTYLFLHKFWFFSAAYYFGNWAFLGVFLIGLIVSCCKGKKSVIEGVDEDSDISDDEPSVYSA [Y232A;E233A;R234A;L235A]: the “effect of a mutation on the interaction” value is given as “with no effect”.

The record behind these values is IntAct's records for PubMed 27456980.
